Experimental data taken from publication PMC12022045 (Nature Communications, 2025).

T1: TAFH (human, UniProt O00268 582-678)
T1 sequence (looked up): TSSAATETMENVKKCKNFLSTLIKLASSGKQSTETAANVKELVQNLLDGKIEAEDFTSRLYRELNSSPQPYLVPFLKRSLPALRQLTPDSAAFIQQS

T2: MED15-ABD3 (human, UniProt Q96RN5-2 453-561)
T2 sequence (looked up): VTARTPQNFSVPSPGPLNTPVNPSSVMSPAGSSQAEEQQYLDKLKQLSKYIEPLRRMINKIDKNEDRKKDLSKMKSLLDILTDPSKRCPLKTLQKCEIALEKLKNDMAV

B1: YAP-TAD (domain or fragment, human, UniProt P46937 450-504, looked up)
chain: GTNVDLGTLEGDGMNIEGEELMPSLQEALSSDILNDMESVLAATKLDKESFLTWL

Tests used:
TAFH = target: T1, TAFH; assay: NMR titration
MED15-ABD3 [1] = target: T2, MED15-ABD3; assay: NMR titration
MED15-ABD3 [2] = target: T2, MED15-ABD3; assay: SPR

Binder	binding result (TAFH)	binding result (MED15-ABD3 [1])	Kd (MED15-ABD3 [2])
FLTWL [FLTWL pentapeptide]	binds	binds	–
SDILNDMESVLAATK [α-helix-based peptide SDILNDMESVLAATK]	binds	–	–
B1	–	–	160 ± 54.3 nM
